The values below come from patent US20040053206A1 (DYAX, published 2004).

Assay [1] concerns the target T1, human plasma kallikrein (human, UniProt P03952 20-638). Put plainly: phage display selection.
For a further assay, the target named is human plasma factor XIa (human, UniProt P03951 19-625). The experiment in a line: protease inhibition, apparent Ki (Ki,app).
Assay [2] deals with porcine pancreatic kallikrein (porcine, UniProt P00752 8-246). The experiment in a line: protease inhibition, apparent Ki (Ki,app).
Assay [3] addresses T1, human plasma kallikrein. The experiment in a line: protease inhibition, apparent Ki (Ki,app).
The target in the next assay is human plasmin (human, UniProt P00747 97-810, limits assumed). Put plainly: protease inhibition, apparent Ki (Ki,app).
For assay [4], the target named is T1, human plasma kallikrein. Put plainly: comparison of Ki,app values, reference aprotinin.

T1 sequence (P03952 20-638 limits assumed): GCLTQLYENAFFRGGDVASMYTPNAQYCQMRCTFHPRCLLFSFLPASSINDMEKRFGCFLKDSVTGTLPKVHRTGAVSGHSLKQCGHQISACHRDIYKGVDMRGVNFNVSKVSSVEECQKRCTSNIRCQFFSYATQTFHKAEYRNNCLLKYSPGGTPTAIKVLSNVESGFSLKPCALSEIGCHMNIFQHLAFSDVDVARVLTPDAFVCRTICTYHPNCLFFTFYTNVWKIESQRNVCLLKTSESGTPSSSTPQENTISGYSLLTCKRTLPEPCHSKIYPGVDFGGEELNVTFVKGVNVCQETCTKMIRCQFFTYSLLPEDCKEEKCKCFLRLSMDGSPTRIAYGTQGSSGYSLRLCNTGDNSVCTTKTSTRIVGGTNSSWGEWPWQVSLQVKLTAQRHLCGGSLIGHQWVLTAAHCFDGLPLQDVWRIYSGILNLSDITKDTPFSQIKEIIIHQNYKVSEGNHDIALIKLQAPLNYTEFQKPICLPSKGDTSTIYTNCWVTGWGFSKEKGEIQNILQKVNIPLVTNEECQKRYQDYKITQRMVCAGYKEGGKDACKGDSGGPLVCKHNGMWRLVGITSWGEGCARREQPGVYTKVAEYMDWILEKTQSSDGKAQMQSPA
Sequence of porcine pancreatic kallikrein (P00752 8-246): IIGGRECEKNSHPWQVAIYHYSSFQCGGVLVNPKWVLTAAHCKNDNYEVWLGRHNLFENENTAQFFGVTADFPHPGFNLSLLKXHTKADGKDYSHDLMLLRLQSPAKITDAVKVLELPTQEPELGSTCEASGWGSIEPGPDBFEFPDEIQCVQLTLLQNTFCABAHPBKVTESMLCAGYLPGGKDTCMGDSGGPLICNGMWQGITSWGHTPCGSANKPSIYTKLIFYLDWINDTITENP
Sequence of human plasmin (P00747 97-810 limits assumed): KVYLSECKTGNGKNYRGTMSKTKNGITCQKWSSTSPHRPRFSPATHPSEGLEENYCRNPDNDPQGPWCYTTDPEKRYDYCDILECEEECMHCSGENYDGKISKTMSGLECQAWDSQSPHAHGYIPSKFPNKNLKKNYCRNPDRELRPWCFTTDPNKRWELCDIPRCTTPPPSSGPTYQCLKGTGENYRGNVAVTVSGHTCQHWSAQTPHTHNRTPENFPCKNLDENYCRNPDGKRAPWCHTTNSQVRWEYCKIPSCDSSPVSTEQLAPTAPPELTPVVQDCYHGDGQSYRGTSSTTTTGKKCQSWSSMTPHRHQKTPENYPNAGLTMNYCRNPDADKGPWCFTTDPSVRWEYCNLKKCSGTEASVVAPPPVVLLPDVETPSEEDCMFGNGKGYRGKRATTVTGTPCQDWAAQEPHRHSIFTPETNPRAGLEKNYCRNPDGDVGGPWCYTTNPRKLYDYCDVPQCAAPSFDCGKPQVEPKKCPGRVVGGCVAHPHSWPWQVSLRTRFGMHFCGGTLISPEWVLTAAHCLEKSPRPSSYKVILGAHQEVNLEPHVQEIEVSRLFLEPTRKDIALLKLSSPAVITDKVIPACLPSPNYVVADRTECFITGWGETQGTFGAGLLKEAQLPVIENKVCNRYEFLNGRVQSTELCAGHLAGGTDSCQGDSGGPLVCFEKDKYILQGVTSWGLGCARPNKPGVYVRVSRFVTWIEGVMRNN

B1: KKII/3#6 (designed binder)
chain: MHSFCAFKADDGHCKANHQRFFFNIFTRQCEEFSYGGCGGNQNRFESLEECKKMCTRD
notes: also called LACI(K1) variant
In the case of B1, the binding result with human plasma kallikrein [1] is on record as “binds”.

B2: KKII/3#9 (designed binder)
chain: MHSFCAFKADDGHCKANHQRFFFNIFTRQCEEFSYGGCGGNQNRFESLEECKKMCTRD
notes: also called LACI(K1) variant
On to B2, for which the binding result with human plasma kallikrein [1] is recorded as “binds”.

B3: KKII/3#3 (designed binder)
chain: MHSFCAFKADDGHCKANHQRFFFNIFTRQCEEFTYGGCGGNQNRFESLEECKKMCTRD
notes: also called LACI(K1) variant
B3: in the assay with human plasma kallikrein [1], the binding result is on record as “binds”.

B4: KKII/3#1 (designed binder)
chain: MHSFCAFKADDGHCKASLPRFFFNIFTRQCEEFIYGGCEGNQNRFESLEECKKMCTRD
notes: also called LACI(K1) variant
For B4, the binding result with human plasma kallikrein [1] is “binds”.

B5: KKII/3#4 (designed binder)
chain: MHSFCAFKADDGHCKANHQRFFFNIFTRQCEQFTYGGCAGNQNRFESLEECKKMCTRD
notes: also called LACI(K1) variant
Regarding B5, the binding result with human plasma kallikrein [1] is reported as “binds”.

B6: KKII/3#5 (designed binder)
chain: MHSFCAFKADDGHCKASLPRFFFNIFTRQCEEFIYGGCGGNQNRFESLEECKKMCTRD
notes: also called LACI(K1) variant
For B6, the binding result with human plasma kallikrein [1] was “binds”.

B7: KKII/3#10 (designed binder)
chain: MHSFCAFKADDGHCKGAHLRFFFNIFTRQCEEFIYGGCEGNQNRFESLEECKKMCTRD
notes: also called LACI(K1) variant
As to B7, in the assay with human plasma kallikrein [1], the binding result was “binds”.

B8: KKII/3#2 (designed binder)
chain: MHSFCAFKADDGPCKANHLRFFFNIFTRQCEEFSYGGCGGNQNRFESLEECKKMCTRD
notes: also called LACI(K1) variant
Turning to B8, the binding result with human plasma kallikrein [1] was “binds”.

B9: PEP-1 KI polypeptide (designed binder)
chain: EAMHSFCAFKADDGPCRAAHPRWFFNIFTRQCEEFIYGGCEGNQNRFESLEECKKMCTRD
notes: also called DX88
With B9, the Ki with human plasma factor XIa stood at 10 nM; in assay [2], 27000 nM; with human plasma kallikrein [3], 0.044 nM; in the assay with human plasmin it was 140 nM. In the assay with human plasma kallikrein [4], the “fold higher affinity (Ki,app) than aprotinin” value was determined as 1000 fold.
